Measurements: publication PMC10135725, “Vutiglabridin Modulates Paraoxonase 1 and Ameliorates Diet-Induced Obesity in Hyperlipidemic Mice” (Biomolecules, 2023)

Substrate: CCCCSC1CCC(=O)O1
Assay: purified protein
Format: biochemical, Homo sapiens
Conditions: 50 mM Tris-HCl pH 8, 1 mM CaCl2, RT, no OX-LA, no vutiglabridin

B1: Recombinant PON1 (rePON1), carboxy-terminal hexahistidine tag (Homo sapiens) (protein)
chain: AKLIALTLLGMGLALFRNHQSSYQTRLNALREVQPVELPNCNLVKGIETGSEDLEILPNGLAFISSGLKYPGIKSFNPNSPGKILLMDLNEEDPTVLELGITGSKFDVSSFNPHGISTFTDEDNAMYLLVVNHPDAKSTVELFKFQEEEKSLLHLKTIRHKLLPNLNDIVAVGPEHFYGTNDHYFLDPYLQSWEMYLGLAWSYVVYYSPSEVRVVAEGFDFANGINISPDGKYVYIAELLAHKIHVYEKHANWTLTPLKSLDFNTLVDNISVDPETGDLWVGCHPNGMKIFFYDSENPPASEVLRIQNILTEEPKVTQVYAENGTVLQGSTVASVYKGKLLIGTVFHKALYCEL
notes: purified, C-terminal hexahistidine tag, expressed in CHO-K1 cells
- Km: 155.78 µM
- Vmax: 92.3 µM/min
